Results on 28 molecules are retold here after patent US20090280138A1 (OXFORD BIOMEDICA UK, published 2009).

One test addresses T1, MHC class I molecule B*0702 (biotin (bound to streptavidin-coated plate)).
T1 construct: also called B7; HLA-B7
The experiment in a line: iTopia iScore. The procedure, abridged: (§1)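 The iScore combines the binding, off-rate and affinity results into one overall binding-quality value for each 9-mer. These measurements were made by ELISA in duplicate on MHC-coated plates, with allele-specific positive controls.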
As for LQGLRRLEL [5T4 9-mer peptide 105 LQGLRRLEL], the iScore was found to be 0.119.

SNHFLYLPR [5T4 9-mer peptide 110 SNHFLYLPR]: the iScore was found to be 0.

On to GLRRLELAS [5T4 9-mer peptide 106 GLRRLELAS], for which the iScore amounted to 0.

As for LYLPRDVLA [5T4 9-mer peptide 112 LYLPRDVLA], the iScore was determined as 0.

VLAQLPSLR [5T4 9-mer peptide 115 VLAQLPSLR] gave an iScore of 0.

RALQGLRRL [5T4 9-mer peptide 104 RALQGLRRL] showed an iScore of 0.078.

AQLPSLRHL [5T4 9-mer peptide 116 AQLPSLRHL] registered an iScore of 0.

Turning to LELASNHFL [5T4 9-mer peptide 108 LELASNHFL], the iScore was 0.

For RHLDLSNNS [5T4 9-mer peptide 119 RHLDLSNNS], the iScore worked out at 0.

Regarding HFLYLPRDV [5T4 9-mer peptide 111 HFLYLPRDV], the iScore turned out to be 0.

AGRALQGLR [5T4 9-mer peptide 103 AGRALQGLR] had an iScore of 0.

For RRLELASNH [5T4 9-mer peptide 107 RRLELASNH], the iScore is 0.

In turn, LLAGRALQG [5T4 9-mer peptide 102 LLAGRALQG] showed an iScore of 0.

In the case of SLRHLDLSN [5T4 9-mer peptide 118 SLRHLDLSN], the iScore is 0.

In turn, RDVLAQLPS [5T4 9-mer peptide 114 RDVLAQLPS] registered an iScore of 0.

AALLAGRAL [5T4 9-mer peptide 101 AALLAGRAL]: the iScore stood at 0.238.

LPRDVLAQL [5T4 9-mer peptide 113 LPRDVLAQL] had an iScore of 0.305.

In turn, LASNHFLYL [5T4 9-mer peptide 109 LASNHFLYL] returned an iScore of 0.

A further test addresses T2, MHC class I molecule A*0301 (biotin (bound to streptavidin-coated plate)).
T2 construct: also called A3; HLA-A3
Nature of the test: iTopia iScore. The essentials: as §1
In the case of LQGLRRLEL [5T4 9-mer peptide 105 LQGLRRLEL], the iScore worked out at 0.

For SNHFLYLPR [5T4 9-mer peptide 110 SNHFLYLPR], the iScore was determined as 0.084.

The molecule GLRRLELAS [5T4 9-mer peptide 106 GLRRLELAS] yielded an iScore of 0.

Take LYLPRDVLA [5T4 9-mer peptide 112 LYLPRDVLA]: the iScore stood at 0.

Take VLAQLPSLR [5T4 9-mer peptide 115 VLAQLPSLR]: the iScore worked out at 0.023.

In turn, RALQGLRRL [5T4 9-mer peptide 104 RALQGLRRL] had an iScore of 0.027.

Regarding AQLPSLRHL [5T4 9-mer peptide 116 AQLPSLRHL], the iScore stood at 0.

In turn, LELASNHFL [5T4 9-mer peptide 108 LELASNHFL] gave an iScore of 0.

Consider RHLDLSNNS [5T4 9-mer peptide 119 RHLDLSNNS], for which the iScore came to 0.

Regarding HFLYLPRDV [5T4 9-mer peptide 111 HFLYLPRDV], the iScore was 0.

In turn, AGRALQGLR [5T4 9-mer peptide 103 AGRALQGLR] had an iScore of 0.

Molecule RRLELASNH [5T4 9-mer peptide 107 RRLELASNH] registered an iScore of 0.

Consider LLAGRALQG [5T4 9-mer peptide 102 LLAGRALQG], for which the iScore came to 0.

SLRHLDLSN [5T4 9-mer peptide 118 SLRHLDLSN] came in with an iScore of 0.

With RDVLAQLPS [5T4 9-mer peptide 114 RDVLAQLPS], the iScore was 0.

In turn, AALLAGRAL [5T4 9-mer peptide 101 AALLAGRAL] gave an iScore of 0.

As for LPRDVLAQL [5T4 9-mer peptide 113 LPRDVLAQL], the iScore amounted to 0.

With LASNHFLYL [5T4 9-mer peptide 109 LASNHFLYL], the iScore is 0.224.

In a further test the target is T3, MHC class I molecule A*0201 (biotin (bound to streptavidin-coated plate)).
T3 construct: also called A2; HLA-A2
Nature of the test: iTopia iScore. The procedure, abridged:
as §1
Consider LQGLRRLEL [5T4 9-mer peptide 105 LQGLRRLEL], for which the iScore was 0.114.

Molecule SNHFLYLPR [5T4 9-mer peptide 110 SNHFLYLPR] registered an iScore of 0.051.

In turn, GLRRLELAS [5T4 9-mer peptide 106 GLRRLELAS] displayed an iScore of 0.045.

For the molecule LYLPRDVLA [5T4 9-mer peptide 112 LYLPRDVLA], the iScore is 0.218.

VLAQLPSLR [5T4 9-mer peptide 115 VLAQLPSLR] yielded an iScore of 0.113.

For the molecule RALQGLRRL [5T4 9-mer peptide 104 RALQGLRRL], the iScore was 0.168.

With AQLPSLRHL [5T4 9-mer peptide 116 AQLPSLRHL], the iScore stood at 0.162.

LELASNHFL [5T4 9-mer peptide 108 LELASNHFL]: the iScore came out at 0.151.

RHLDLSNNS [5T4 9-mer peptide 119 RHLDLSNNS] showed an iScore of 0.029.

The molecule HFLYLPRDV [5T4 9-mer peptide 111 HFLYLPRDV] came in with an iScore of 0.227.

In turn, AGRALQGLR [5T4 9-mer peptide 103 AGRALQGLR] registered an iScore of 0.

Take RRLELASNH [5T4 9-mer peptide 107 RRLELASNH]: the iScore is 0.

Take LLAGRALQG [5T4 9-mer peptide 102 LLAGRALQG]: the iScore was 0.176.

Molecule SLRHLDLSN [5T4 9-mer peptide 118 SLRHLDLSN] displayed an iScore of 0.03.

The molecule RDVLAQLPS [5T4 9-mer peptide 114 RDVLAQLPS] gave an iScore of 0.

AALLAGRAL [5T4 9-mer peptide 101 AALLAGRAL] registered an iScore of 0.156.

Consider LPRDVLAQL [5T4 9-mer peptide 113 LPRDVLAQL], for which the iScore was determined as 0.

As to LASNHFLYL [5T4 9-mer peptide 109 LASNHFLYL], the iScore was determined as 0.337.

A further test concerns the target T4, MHC class I molecule A*0101 (biotin (bound to streptavidin-coated plate)).
T4 construct: also called A1; HLA-A1
Nature of the test: iTopia iScore. The essentials:
as §1
Molecule LQGLRRLEL [5T4 9-mer peptide 105 LQGLRRLEL] gave an iScore of 0.

Regarding SNHFLYLPR [5T4 9-mer peptide 110 SNHFLYLPR], the iScore came out at 0.

For GLRRLELAS [5T4 9-mer peptide 106 GLRRLELAS], the iScore was determined as 0.

Turning to LYLPRDVLA [5T4 9-mer peptide 112 LYLPRDVLA], the iScore came out at 0.

The molecule VLAQLPSLR [5T4 9-mer peptide 115 VLAQLPSLR] registered an iScore of 0.

As for RALQGLRRL [5T4 9-mer peptide 104 RALQGLRRL], the iScore came to 0.

For the molecule AQLPSLRHL [5T4 9-mer peptide 116 AQLPSLRHL], the iScore turned out to be 0.

Molecule LELASNHFL [5T4 9-mer peptide 108 LELASNHFL] displayed an iScore of 0.

As for RHLDLSNNS [5T4 9-mer peptide 119 RHLDLSNNS], the iScore is 0.

On to HFLYLPRDV [5T4 9-mer peptide 111 HFLYLPRDV], for which the iScore was 0.

For AGRALQGLR [5T4 9-mer peptide 103 AGRALQGLR], the iScore turned out to be 0.

In turn, RRLELASNH [5T4 9-mer peptide 107 RRLELASNH] registered an iScore of 0.

LLAGRALQG [5T4 9-mer peptide 102 LLAGRALQG] yielded an iScore of 0.

As to SLRHLDLSN [5T4 9-mer peptide 118 SLRHLDLSN], the iScore was 0.

With RDVLAQLPS [5T4 9-mer peptide 114 RDVLAQLPS], the iScore was determined as 0.

Molecule AALLAGRAL [5T4 9-mer peptide 101 AALLAGRAL] gave an iScore of 0.

On to LPRDVLAQL [5T4 9-mer peptide 113 LPRDVLAQL], for which the iScore was 0.

For the molecule LASNHFLYL [5T4 9-mer peptide 109 LASNHFLYL], the iScore was 0.12.

A further test deals with T5, MHC class I allele B*0702 monomer (human, biotinylated, bound to streptavidin-coated plate).
T5 construct: also called B7; HLA-B7
The experiment in a line: iTopia, multiparametric iScore. The protocol:
(§2) The 9 mers were tested for Peptide Binding, Off Rate and Affinity using iTopia Epitope Discovery System in accordance with the manufacturer's instructions. Briefly, 96 well microtitre plates coated with MHC molecules representing different MHC alleles are used to identify candidate peptides. […] Determinations are performed in duplicate using an ELISA plate reader and included allele specific positive controls.
(§3) Finally, multiparametric analysis is performed on the results from these assays and an iScore is generated. The iScore represents a measure of the overall quality of peptide-MHC binding, enabling candidate peptides to be ranked in order of binding quality and allowing rational prioritisation of peptides for functional cellular follow-up studies.
In turn, RNLTHLESL [5T4 9-mer peptide 128] yielded an iScore of 0.

Turning to LTHLESLHL [5T4 9-mer peptide 129], the iScore amounted to 0.

Consider SFRNLTHLE [5T4 9-mer peptide 127], for which the iScore was found to be 0.

In turn, NNSLVSLTY [5T4 9-mer peptide 122] came in with an iScore of 0.

LSNNSLVSL [5T4 9-mer peptide 121] came in with an iScore of 0.012.

In turn, VSLTYVSFR [5T4 9-mer peptide 124] returned an iScore of 0.

For the molecule HLESLHLED (also called HLESLHLED) [5T4 9-mer peptide 130], the iScore is 0.

SLVSLTYVS [5T4 9-mer peptide 123] returned an iScore of 0.

On to ESLHLEDNA [5T4 9-mer peptide 131], for which the iScore is 0.

LDLSNNSLV [5T4 9-mer peptide 120] registered an iScore of 0.

The next test deals with T6, MHC class I allele A*0301 monomer (human, biotinylated, bound to streptavidin-coated plate).
T6 construct: also called A3; HLA-A3
The experiment in a line: iTopia, multiparametric iScore. The protocol: as §2, §3
As to RNLTHLESL [5T4 9-mer peptide 128], the iScore stood at 0.

LTHLESLHL [5T4 9-mer peptide 129]: the iScore was 0.

In turn, SFRNLTHLE [5T4 9-mer peptide 127] displayed an iScore of 0.

The molecule NNSLVSLTY [5T4 9-mer peptide 122] registered an iScore of 0.

Take LSNNSLVSL [5T4 9-mer peptide 121]: the iScore was 0.

Regarding VSLTYVSFR [5T4 9-mer peptide 124], the iScore turned out to be 0.025.

HLESLHLED (also called HLESLHLED) [5T4 9-mer peptide 130] gave an iScore of 0.

Regarding SLVSLTYVS [5T4 9-mer peptide 123], the iScore was 0.

Regarding ESLHLEDNA [5T4 9-mer peptide 131], the iScore worked out at 0.

Molecule LDLSNNSLV [5T4 9-mer peptide 120] registered an iScore of 0.

The target of another test is T7, MHC class I allele A*0101 monomer (human, biotinylated, bound to streptavidin-coated plate).
T7 construct: placeholder peptide and b2M removed, then reconstituted with test peptide and fresh b2M; also called A1; HLA-A1
The experiment in a line: iTopia, multiparametric iScore. The protocol: as §2, §3
On to RNLTHLESL [5T4 9-mer peptide 128], for which the iScore came out at 0.

Regarding LTHLESLHL [5T4 9-mer peptide 129], the iScore was found to be 0.

The molecule SFRNLTHLE [5T4 9-mer peptide 127] gave an iScore of 0.

In the case of NNSLVSLTY [5T4 9-mer peptide 122], the iScore came out at 0.

Regarding LSNNSLVSL [5T4 9-mer peptide 121], the iScore was found to be 0.

For VSLTYVSFR [5T4 9-mer peptide 124], the iScore was 0.

HLESLHLED (also called HLESLHLED) [5T4 9-mer peptide 130] came in with an iScore of 0.

As for SLVSLTYVS [5T4 9-mer peptide 123], the iScore was found to be 0.

The molecule ESLHLEDNA [5T4 9-mer peptide 131] showed an iScore of 0.

Regarding LDLSNNSLV [5T4 9-mer peptide 120], the iScore was found to be 0.

A further test addresses T8, MHC class I allele A*0201 monomer (human, biotinylated, bound to streptavidin-coated plate).
T8 construct: also called A2; HLA-A2
Nature of the test: iTopia, multiparametric iScore. The protocol:
as §2, §3
Consider RNLTHLESL [5T4 9-mer peptide 128], for which the iScore was 0.072.

In turn, LTHLESLHL [5T4 9-mer peptide 129] had an iScore of 0.143.

For SFRNLTHLE [5T4 9-mer peptide 127], the iScore is 0.

NNSLVSLTY [5T4 9-mer peptide 122] registered an iScore of 0.

LSNNSLVSL [5T4 9-mer peptide 121]: the iScore was 0.116.

VSLTYVSFR [5T4 9-mer peptide 124] registered an iScore of 0.

HLESLHLED (also called HLESLHLED) [5T4 9-mer peptide 130] showed an iScore of 0.

Regarding SLVSLTYVS [5T4 9-mer peptide 123], the iScore turned out to be 0.206.

As for ESLHLEDNA [5T4 9-mer peptide 131], the iScore turned out to be 0.

For LDLSNNSLV [5T4 9-mer peptide 120], the iScore came to 0.156.
